Common to all, as to experiment: SEC
Background: SEC sorts molecules by how far they enter the pores of the column.

The target of experiment [1] is Clostridioides difficile GerS K71R, His6-tagged (Clostridioides difficile).
Experiment [2] has as its target Clostridioides difficile GerS N74L, His6-tagged (Clostridioides difficile).
Experiment [3] addresses Clostridioides difficile GerS T72P, His6-tagged (Clostridioides difficile).
The target of experiment [4] is Clostridioides difficile GerS, His6-tagged (wild type) (Clostridioides difficile).
The target of experiment [5] is GerS ortholog from Paraclostridium bifermentans, His6-tagged (Paraclostridium bifermentans).
The target of experiment [6] is GerS ortholog from Paraclostridium sordellii, His6-tagged (Paraclostridium sordellii).

We go through six substances from article doi:10.1101/2025.01.13.632879.

One may read the stoichiometry N as the number of molecules, sites or subunits per partner or assembly. In experiment [1], “Clostridioides difficile GerS K71R, His6-tagged (natural protein)” yielded a stoichiometry N of 2.

As for “Clostridioides difficile GerS N74L, His6-tagged (natural protein)”, the stoichiometry N in experiment [2] is 2.

Substance “Clostridioides difficile GerS T72P, His6-tagged (natural protein)” came in with a stoichiometry N in experiment [3] of 2.

The substance “Clostridioides difficile GerS, His6-tagged (wild type) (natural protein)” displayed a stoichiometry N in experiment [4] of 2.

“GerS ortholog from Paraclostridium bifermentans, His6-tagged (natural protein)” came in with a stoichiometry N in experiment [5] of 2.

Regarding “GerS ortholog from Paraclostridium sordellii, His6-tagged (natural protein)”, the stoichiometry N in experiment [6] is 2.
